# Results from paper PMC11784016.
# Legend:
# Assay in all cases: co-IP; 293T cells co-transfected; 400 ug of cell lysate on anti-HA magnetic beads with RNaseA (50 ug/mL), 2 h at 4 C; co-IP buffer 50 mM Tris-Cl pH 7.4, 1% Nonidet-P40, 10% glycerol, 150 mM NaCl; immunoblot with anti-HA and anti-V5 or anti-Flag; band intensities normalised to the immunoprecipitated protein, full-length protein set to 100%
# [1] = target: APOBEC3F N-terminal domain, HA-tagged (pcDNA3.1 A3F NTD-HA) (human)
# [2] = target: APOBEC3F-HA (pcDNA3.1 A3F-HA) (human) (UniProt Q8IUX4)
# [3] = target: APOBEC3G N-terminal domain, HA-tagged (pcDNA3.1 A3G NTD-HA) (human)
# APOBEC3G N-terminal domain, HA-tagged (pcDNA3.1 A3G NTD-HA) (human), sequence (Q9HC16 whole entry, the tested form may be a part): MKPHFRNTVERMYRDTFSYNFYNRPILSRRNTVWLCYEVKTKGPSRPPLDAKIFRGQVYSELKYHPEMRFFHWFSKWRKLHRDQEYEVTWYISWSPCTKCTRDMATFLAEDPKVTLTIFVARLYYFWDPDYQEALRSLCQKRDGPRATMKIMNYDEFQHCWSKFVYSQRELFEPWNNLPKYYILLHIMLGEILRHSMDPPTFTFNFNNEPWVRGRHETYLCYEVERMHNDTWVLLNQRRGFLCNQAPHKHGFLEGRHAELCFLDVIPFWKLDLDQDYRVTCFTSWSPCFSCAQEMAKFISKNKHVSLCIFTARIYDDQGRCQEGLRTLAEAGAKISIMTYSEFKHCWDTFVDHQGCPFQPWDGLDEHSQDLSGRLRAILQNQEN
# [4] = target: APOBEC3G with C-terminal triple HA tag (pcDNA3.1-APOBEC3G-HA) (human) (UniProt Q9HC16)
# APOBEC3F N-terminal domain, HA-tagged (pcDNA3.1 A3F NTD-HA) (human), sequence (Q8IUX4 whole entry, the tested form may be a part): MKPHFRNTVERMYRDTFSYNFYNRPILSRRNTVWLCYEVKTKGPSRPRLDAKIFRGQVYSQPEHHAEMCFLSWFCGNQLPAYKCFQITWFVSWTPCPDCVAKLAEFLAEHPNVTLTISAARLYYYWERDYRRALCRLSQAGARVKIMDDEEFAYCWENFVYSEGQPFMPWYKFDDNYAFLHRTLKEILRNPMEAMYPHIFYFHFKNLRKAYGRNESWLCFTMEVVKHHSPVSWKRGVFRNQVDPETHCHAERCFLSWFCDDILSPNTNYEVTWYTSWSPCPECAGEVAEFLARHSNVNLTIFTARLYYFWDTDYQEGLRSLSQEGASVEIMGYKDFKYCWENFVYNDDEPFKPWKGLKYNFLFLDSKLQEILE
substance,measurement,setting,value
"APOBEC3G N-terminal domain, Flag-tagged (pcDNA3.1 A3G NTD-Flag) (domain or fragment)",fold less in the co-IP than the full-length protein,[1],1000 fold
same,fold by which full-length A3G in the co-IP exceeded this construct,[2],6 fold
"APOBEC3F N-terminal domain, Flag-tagged (pcDNA3.1 A3F NTD-Flag) (domain or fragment)",fold more immunoprecipitated than full-length A3F,[3],7 fold
"APOBEC3G C-terminal domain, Flag-tagged (A3G CTD-Flag) (domain or fragment)",fold by which full-length A3G in the co-IP exceeded this construct,[2],42 fold
"APOBEC3F C-terminal domain, Flag-tagged (pcDNA3.1 A3F CTD-Flag) (domain or fragment)",fold less immunoprecipitated than full-length A3F and A3F NTD,[4],17 fold
